Reference: PMC4273445 (eLife, 2014)
Changes are numbered by the printed parent chain. Values joined by “and” are separate entries in the source; they are usually repeats but may differ in a detail not shown here. Identical values can stand only once.

B1: complement factor-H related 3 (CFHR3), full length, recombinant His-tagged, Q02985 19-330 (natural protein)
chain: QVKPCDFPDIKHGGLFHENMRRPYFPVAVGKYYSYYCDEHFETPSGSYWDYIHCTQNGWSPAVPCLRKCYFPYLENGYNQNYGRKFVQGNSTEVACHPGYGLPKAQTTVTCTEKGWSPTPRCIRVRTCSKSDIEIENGFISESSSIYILNKEIQYKCKPGYATADGNSSGSITCLQNGWSAQPICINSSEKCGPPPPISNGDTTSFLLKVYVPQSRVEYQCQPYYELQGSNYVTCSNGEWSEPPRCIHPCIITEENMNKNNIKLKGRSDRKYYAKTGDTIEFMCKLGYNANTSILSFQAVCREGIVEYPRCE
B2: complement factor-H related 3 (CFHR3), full length, recombinant His-tagged (natural protein)
chain: B1 chain
B3: CFHR3_(12), the first two (N-terminal) CCP domains of complement factor H-related 3, Q02985 19-330 (domain or fragment)
chain: B1 chain
B4: fHbp V3.28 Val (at V1 Val272) to Ala (natural protein)
chain: VAADIGTGLADALTAPLDHKDKGLKSLTLEDSIPQNGTLTLSAQGAEKTFKAGDKDNSLNTGKLKNDKISRFDFVQKIEVDGQTITLASGEFQIYKQNHSAVVALQIEKINNPDKTDSLINQRSFLVSGLGGEHTAFNQLPGGKAEYHGKAFSSDDPNGRLHYSIDFTKKQGYGRIEHLKTLEQNVELAAAELKADEKSHAAILGDTRYGSEEKGTYHLALFGDRAQEIAGSATVKIGEKVHEIGIAGKQ
B5: CFHR3_(12), the first two CCP domains of CFHR3 (domain or fragment)
chain: KPCDFPDIKHGGLFHENMRRPYFPVAVGKYYSYYCDEHFETPSGSYWDYIHCTQNGWSPAVPCLRKCYFPYLENGYNQNYGRKFVQGNSTEVACHPGYGLPKAQTTVTCTEKGWSPTPRCIR
B6: fHbp V2.21 Val (at V1 Val272) to Ala (natural protein)
chain: VAADIGAGLADALTAPLDHKDKSLQSLTLDQSVRKNEKLKLAAQGAEKTYGNGDSLNTGKLKNDKVSRFDFIRQIEVDGQLITLESGEFQIYKQDHSAVVALQIEKINNPDKIDSLINQRSFLVSGLGGEHTAFNQLPSGKAEYHGKAFSSDDPNGRLHYSIDFTKKQGYGRIEHLKTPEQNVELASAELKADEKSHAAILGDTRYGSEEKGTYHLALFGDRAQEIAGSATVKIREKVHEIGIAGKQ
B7: fHbp V2.21 Gln (at V1 Lys191) to Ala (natural protein)
chain: MGPDSDRLQQRRVAADIGAGLADALTAPLDHKDKSLQSLTLDQSVRKNEKLKLAAQGAEKTYGNGDSLNTGKLKNDKVSRFDFIRQIEVDGQLITLESGEFQIYKQDHSAVVALQIEKINNPDKIDSLINARSFLVSGLGGEHTAFNQLPSGKAEYHGKAFSSDDPNGRLHYSIDFTKKQGYGRIEHLKTPEQNVELASAELKADEKSHAVILGDTRYGSEEKGTYHLALFGDRAQEIAGSATVKIREKVHEIGIAGKQLEHHHHHH
B8: CFH67, CCP domains 6 and 7 of complement factor H (domain or fragment)
chain: TLKPCDYPDIKHGGLYHENMRRPYFPVAVGKYYSYYCDEHFETPSGSYWDHIHCTQDGWSPAVPCLRKCYFPYLENGYNQNYGRKFVQGKSIDVACHPGYALPKAQTTVTCMENGWSPTPRCI
notes: source: prepared as previously described (Prosser et al., 2007)

Legend:
[1] = target: fHbp V1.1, recombinant His-tagged (Neisseria meningitidis) (UniProt Q9JXV4); test: SPR
[2] = target: factor H binding protein (fHbp) V3.28, recombinant His-tagged (Neisseria meningitidis), E6MV22; test: MST
[3] = target: T1, factor H binding protein (fHbp) V3.28, recombinant His-tagged (Neisseria meningitidis, UniProt E6MV22 20-274); test: MST
T1 chain: B4 chain with A202V

[4] = target: factor H binding protein (fHbp) V3.28 (N. meningitidis), E6MV22; test: SPR
[5] = target: T2, CFHR3_(12), the first two (N-terminal) CCP domains of complement factor H-related 3 (human, UniProt Q02985 19-330); test: SPR; details: both partners purified
T2 construct: also called CFHR12
T2 sequence: B1 chain

[6] = target: B8; test: SPR; details: both partners purified
[7] = target: T1, factor H binding protein (fHbp) V3.28, …; test: SPR
[8] = target: T2, CFHR3_(12), the first two (N-terminal) …; test: SPR; details: both partners purified; remark: listed apart in the source
[9] = target: B8; test: SPR; details: both partners purified; remark: listed apart in the source
[10] = target: T3, factor H binding protein (fHbp) V1.1 (N. meningitidis, UniProt Q9JXV4 20-274); test: SPR; details: both partners purified
T3 construct: fHbp variant 1.1; source: recombinant, as in Johnson et al., 2012
T3 sequence: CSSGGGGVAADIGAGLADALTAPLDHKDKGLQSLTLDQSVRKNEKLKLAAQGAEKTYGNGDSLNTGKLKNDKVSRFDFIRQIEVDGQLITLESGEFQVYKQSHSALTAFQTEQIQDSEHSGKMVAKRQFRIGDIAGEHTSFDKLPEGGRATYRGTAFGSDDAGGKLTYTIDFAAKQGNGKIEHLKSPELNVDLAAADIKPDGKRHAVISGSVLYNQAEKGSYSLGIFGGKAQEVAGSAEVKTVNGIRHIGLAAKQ

[11] = target: factor H binding protein (fHbp) V3.28 (N. meningitidis, UniProt E6MV22 20-274); test: SPR; details: both partners purified

CFHR3_(12), the first two CCP domains of CFHR3 (domain or fragment)
specificity for CFH over CFHR3 (fold) [1]: 20 fold

B1
Kd [2]: 3 nM

B2
Kd [3]: 9 nM

B3
Kd [4]: 4.08 nM and 4 nM and 4.25 nM

B4
Kd [5]: 42 nM | Kd [6]: 25.3 nM

B5
Kd [7]: 4 nM

B6
Kd [8]: 63.5 nM

B7
Kd [8]: 2.85 nM | Kd [9]: 3.02 nM

B8
Kd [10]: 3.56 nM | Kd [11]: 2.74 nM and 2.46 nM and 3.17 nM
